Measurements as given in paper PMC8273888.

What was measured:
Experiment in all cases: Kinetic parameters of hydrolysis of cephalosporin conjugates
Type in all cases: biochemical
Details in all cases: other: compound as substrate of IMP-28; pH 7.2; 25.0 °C
[1] = substrate: [H][C@]12SCC(CSC(C(=O)O)c3ccccc3)=C(C(=O)O)N1C(=O)[C@H]2NC(=O)Cc1ccccc1
[2] = substrate: [H][C@]12SCC(CSCCc3ccccc3)=C(C(=O)O)N1C(=O)[C@H]2NC(=O)Cc1ccccc1
[3] = substrate: [H][C@]12SCC(CSCc3ccccc3)=C(C(=O)O)N1C(=O)[C@H]2NC(=O)Cc1ccccc1
[4] = substrate: [H][C@]12SCC(CS[C@@H](Cc3ccccc3)C(=O)O)=C(C(=O)O)N1C(=O)[C@H]2NC(=O)Cc1ccccc1
[5] = substrate: [H][C@]12SCC(CS[C@H](Cc3ccccc3)C(=O)O)=C(C(=O)O)N1C(=O)[C@H]2NC(=O)Cc1ccccc1

B1: IMP-28 (Klebsiella oxytoca) (protein)
chain: ESLPDLKIERLDEGVYVHTSFEEVNGWGVVPKHGLVVLVNTEAYLIDTPFTAKDTEKLVTWFVGRGYKIKGSISSHFHSDSTGGIEWLNSQSIPTYASELTNELLKKDGKVQAKNSFGGVSYWLVKNKIEVFYPGPGHTPDNVVVWLPENRVLFGGCFVKPYGLGNLGDANLEAWPKSAKLLMSKYGKAKLVVPSHSEVGDASLLKRTLEHAVKGLNESKKPSKPSN
- Km [1]: 129 ± 13 µM
- kcat [1]: 0.386 s⁻¹
- kcat/Km [1]: 3000 M⁻¹ s⁻¹
- Km [2]: 83.3 ± 16 µM
- kcat [2]: 6.12 s⁻¹
- kcat/Km [2]: 73000 M⁻¹ s⁻¹
- Km [3]: 20.5 ± 4 µM
- kcat [3]: 10.8 s⁻¹
- kcat/Km [3]: 529000 M⁻¹ s⁻¹
- Km [4]: 175 ± 19 µM
- kcat [4]: 41 s⁻¹
- kcat/Km [4]: 234000 M⁻¹ s⁻¹
- Km [5]: 249 ± 7 µM
- kcat [5]: 2.83 s⁻¹
- kcat/Km [5]: 11000 M⁻¹ s⁻¹
